Reference: paper PMC11949031
Blank lines part the entries; values can stand above or below the binder they belong to.

Tests used:
Test in all cases: Ni-NTA pull-down with immunoblot quantification (ImageJ)
Settings in all cases: chain shown with the change; U2OS UNC45A-KO cells cotransfected; 5 independent experiments; parent: est. 1; read off a plot
[1] = molecular target: T1, His-tagged UNC45A p.Leu237Pro mutant, Q9H3U1-1
T1 chain: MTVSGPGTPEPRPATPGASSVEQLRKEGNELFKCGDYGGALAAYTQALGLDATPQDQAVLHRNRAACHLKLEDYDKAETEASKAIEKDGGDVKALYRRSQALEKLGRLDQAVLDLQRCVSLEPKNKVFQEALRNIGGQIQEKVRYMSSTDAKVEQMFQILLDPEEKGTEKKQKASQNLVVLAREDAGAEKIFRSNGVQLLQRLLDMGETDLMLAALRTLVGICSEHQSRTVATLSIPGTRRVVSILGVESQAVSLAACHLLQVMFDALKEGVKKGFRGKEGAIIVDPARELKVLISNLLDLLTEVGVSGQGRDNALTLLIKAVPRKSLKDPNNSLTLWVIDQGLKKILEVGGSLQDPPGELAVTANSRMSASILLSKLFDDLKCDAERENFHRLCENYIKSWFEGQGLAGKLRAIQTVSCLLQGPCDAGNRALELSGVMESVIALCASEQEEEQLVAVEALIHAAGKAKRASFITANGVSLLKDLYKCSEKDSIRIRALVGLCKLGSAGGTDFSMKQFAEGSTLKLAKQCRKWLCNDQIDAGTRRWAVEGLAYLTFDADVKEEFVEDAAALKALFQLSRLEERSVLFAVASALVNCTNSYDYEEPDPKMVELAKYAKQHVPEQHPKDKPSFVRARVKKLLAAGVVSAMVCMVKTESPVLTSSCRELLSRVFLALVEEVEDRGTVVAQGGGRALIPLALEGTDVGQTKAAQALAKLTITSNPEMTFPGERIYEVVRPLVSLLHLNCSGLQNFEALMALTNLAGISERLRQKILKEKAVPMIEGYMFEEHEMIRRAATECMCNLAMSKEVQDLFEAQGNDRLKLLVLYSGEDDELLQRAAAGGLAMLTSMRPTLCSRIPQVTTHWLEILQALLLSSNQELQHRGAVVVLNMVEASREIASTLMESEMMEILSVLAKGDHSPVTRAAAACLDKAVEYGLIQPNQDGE

[2] = molecular target: T2, HA-tagged UNC45A wild-type (Unc-45 myosin chaperone A), Q9H3U1-1
T2 chain: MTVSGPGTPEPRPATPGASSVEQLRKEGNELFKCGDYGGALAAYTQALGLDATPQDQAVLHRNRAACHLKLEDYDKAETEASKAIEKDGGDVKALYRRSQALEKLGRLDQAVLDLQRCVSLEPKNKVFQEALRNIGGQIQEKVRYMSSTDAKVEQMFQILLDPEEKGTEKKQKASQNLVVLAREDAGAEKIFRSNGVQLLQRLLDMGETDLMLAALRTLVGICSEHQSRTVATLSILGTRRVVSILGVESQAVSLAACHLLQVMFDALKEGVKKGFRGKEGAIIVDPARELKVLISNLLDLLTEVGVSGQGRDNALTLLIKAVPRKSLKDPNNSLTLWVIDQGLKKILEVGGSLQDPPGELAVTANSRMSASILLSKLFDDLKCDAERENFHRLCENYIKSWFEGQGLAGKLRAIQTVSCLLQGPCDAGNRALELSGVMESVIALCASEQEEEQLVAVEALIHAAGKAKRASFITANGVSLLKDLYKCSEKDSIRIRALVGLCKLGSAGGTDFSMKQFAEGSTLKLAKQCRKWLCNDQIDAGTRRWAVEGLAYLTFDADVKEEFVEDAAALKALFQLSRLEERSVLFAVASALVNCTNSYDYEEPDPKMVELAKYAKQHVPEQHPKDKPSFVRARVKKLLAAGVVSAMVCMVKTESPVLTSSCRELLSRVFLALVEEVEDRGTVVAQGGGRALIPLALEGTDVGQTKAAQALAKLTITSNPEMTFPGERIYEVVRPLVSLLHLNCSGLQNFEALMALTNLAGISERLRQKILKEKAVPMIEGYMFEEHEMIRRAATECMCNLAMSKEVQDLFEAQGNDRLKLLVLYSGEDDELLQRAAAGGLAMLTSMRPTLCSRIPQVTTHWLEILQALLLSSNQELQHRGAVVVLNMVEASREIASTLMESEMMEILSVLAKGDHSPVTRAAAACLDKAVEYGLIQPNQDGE

[3] = molecular target: T3, His-tagged UNC45A wild-type, Q9H3U1-1
T3 chain: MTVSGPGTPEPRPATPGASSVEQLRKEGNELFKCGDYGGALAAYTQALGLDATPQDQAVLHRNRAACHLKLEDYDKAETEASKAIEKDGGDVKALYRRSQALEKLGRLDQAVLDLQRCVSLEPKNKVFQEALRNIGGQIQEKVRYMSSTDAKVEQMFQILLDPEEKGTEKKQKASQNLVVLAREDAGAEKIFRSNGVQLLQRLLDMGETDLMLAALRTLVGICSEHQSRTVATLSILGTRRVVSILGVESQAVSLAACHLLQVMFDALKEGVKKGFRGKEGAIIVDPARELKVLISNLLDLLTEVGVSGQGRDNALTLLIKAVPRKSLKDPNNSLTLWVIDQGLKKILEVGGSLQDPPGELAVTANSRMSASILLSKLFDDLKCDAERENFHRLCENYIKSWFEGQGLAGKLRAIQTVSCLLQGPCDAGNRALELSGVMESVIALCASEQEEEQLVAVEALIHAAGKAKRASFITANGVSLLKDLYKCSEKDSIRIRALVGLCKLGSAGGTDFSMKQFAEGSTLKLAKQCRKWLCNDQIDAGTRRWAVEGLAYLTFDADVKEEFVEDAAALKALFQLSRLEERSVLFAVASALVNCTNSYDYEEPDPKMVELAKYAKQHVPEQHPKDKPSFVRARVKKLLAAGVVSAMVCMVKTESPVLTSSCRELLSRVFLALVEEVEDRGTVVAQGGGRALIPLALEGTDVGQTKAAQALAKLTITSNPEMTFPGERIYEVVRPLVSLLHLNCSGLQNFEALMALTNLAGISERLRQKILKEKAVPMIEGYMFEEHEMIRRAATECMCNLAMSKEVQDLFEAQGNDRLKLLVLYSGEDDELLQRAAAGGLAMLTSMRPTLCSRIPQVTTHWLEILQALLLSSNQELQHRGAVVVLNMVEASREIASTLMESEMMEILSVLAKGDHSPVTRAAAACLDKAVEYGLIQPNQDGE

ratio to parent [1]: 12 fold change
B1: m1 (prey) and m3 (bait) p.Leu237Pro (HA-tagged prey); p.Leu237Pro (His-tagged bait) (protein)
chain: MTVSGPGTPEPRPATPGASSVEQLRKEGNELFKCGDYGGALAAYTQALGLDATPQDQAVLHRNRAACHLKLEDYDKAETEASKAIEKDGGDVKALYRRSQALEKLGRLDQAVLDLQRCVSLEPKNKVFQEALRNIGGQIQEKVRYMSSTDAKVEQMFQILLDPEEKGTEKKQKASQNLVVLAREDAGAEKIFRSNGVQLLQRLLDMGETDLMLAALRTLVGICSEHQSRTVATLSIPGTRRVVSILGVESQAVSLAACHLLQVMFDALKEGVKKGFRGKEGAIIVDPARELKVLISNLLDLLTEVGVSGQGRDNALTLLIKAVPRKSLKDPNNSLTLWVIDQGLKKILEVGGSLQDPPGELAVTANSRMSASILLSKLFDDLKCDAERENFHRLCENYIKSWFEGQGLAGKLRAIQTVSCLLQGPCDAGNRALELSGVMESVIALCASEQEEEQLVAVEALIHAAGKAKRASFITANGVSLLKDLYKCSEKDSIRIRALVGLCKLGSAGGTDFSMKQFAEGSTLKLAKQCRKWLCNDQIDAGTRRWAVEGLAYLTFDADVKEEFVEDAAALKALFQLSRLEERSVLFAVASALVNCTNSYDYEEPDPKMVELAKYAKQHVPEQHPKDKPSFVRARVKKLLAAGVVSAMVCMVKTESPVLTSSCRELLSRVFLALVEEVEDRGTVVAQGGGRALIPLALEGTDVGQTKAAQALAKLTITSNPEMTFPGERIYEVVRPLVSLLHLNCSGLQNFEALMALTNLAGISERLRQKILKEKAVPMIEGYMFEEHEMIRRAATECMCNLAMSKEVQDLFEAQGNDRLKLLVLYSGEDDELLQRAAAGGLAMLTSMRPTLCSRIPQVTTHWLEILQALLLSSNQELQHRGAVVVLNMVEASREIASTLMESEMMEILSVLAKGDHSPVTRAAAACLDKAVEYGLIQPNQDGE

ratio to parent [2]: 2.2 fold change
B2: His-tagged UNC45A wild-type, Q9H3U1-1 p.Leu237Pro (protein)
chain: MTVSGPGTPEPRPATPGASSVEQLRKEGNELFKCGDYGGALAAYTQALGLDATPQDQAVLHRNRAACHLKLEDYDKAETEASKAIEKDGGDVKALYRRSQALEKLGRLDQAVLDLQRCVSLEPKNKVFQEALRNIGGQIQEKVRYMSSTDAKVEQMFQILLDPEEKGTEKKQKASQNLVVLAREDAGAEKIFRSNGVQLLQRLLDMGETDLMLAALRTLVGICSEHQSRTVATLSIPGTRRVVSILGVESQAVSLAACHLLQVMFDALKEGVKKGFRGKEGAIIVDPARELKVLISNLLDLLTEVGVSGQGRDNALTLLIKAVPRKSLKDPNNSLTLWVIDQGLKKILEVGGSLQDPPGELAVTANSRMSASILLSKLFDDLKCDAERENFHRLCENYIKSWFEGQGLAGKLRAIQTVSCLLQGPCDAGNRALELSGVMESVIALCASEQEEEQLVAVEALIHAAGKAKRASFITANGVSLLKDLYKCSEKDSIRIRALVGLCKLGSAGGTDFSMKQFAEGSTLKLAKQCRKWLCNDQIDAGTRRWAVEGLAYLTFDADVKEEFVEDAAALKALFQLSRLEERSVLFAVASALVNCTNSYDYEEPDPKMVELAKYAKQHVPEQHPKDKPSFVRARVKKLLAAGVVSAMVCMVKTESPVLTSSCRELLSRVFLALVEEVEDRGTVVAQGGGRALIPLALEGTDVGQTKAAQALAKLTITSNPEMTFPGERIYEVVRPLVSLLHLNCSGLQNFEALMALTNLAGISERLRQKILKEKAVPMIEGYMFEEHEMIRRAATECMCNLAMSKEVQDLFEAQGNDRLKLLVLYSGEDDELLQRAAAGGLAMLTSMRPTLCSRIPQVTTHWLEILQALLLSSNQELQHRGAVVVLNMVEASREIASTLMESEMMEILSVLAKGDHSPVTRAAAACLDKAVEYGLIQPNQDGE

ratio to parent [3]: 1.6 fold change
B3: HA-tagged UNC45A wild-type (Unc-45 myosin chaperone A), Q9H3U1-1 p.Leu237Pro (protein)
chain: MTVSGPGTPEPRPATPGASSVEQLRKEGNELFKCGDYGGALAAYTQALGLDATPQDQAVLHRNRAACHLKLEDYDKAETEASKAIEKDGGDVKALYRRSQALEKLGRLDQAVLDLQRCVSLEPKNKVFQEALRNIGGQIQEKVRYMSSTDAKVEQMFQILLDPEEKGTEKKQKASQNLVVLAREDAGAEKIFRSNGVQLLQRLLDMGETDLMLAALRTLVGICSEHQSRTVATLSIPGTRRVVSILGVESQAVSLAACHLLQVMFDALKEGVKKGFRGKEGAIIVDPARELKVLISNLLDLLTEVGVSGQGRDNALTLLIKAVPRKSLKDPNNSLTLWVIDQGLKKILEVGGSLQDPPGELAVTANSRMSASILLSKLFDDLKCDAERENFHRLCENYIKSWFEGQGLAGKLRAIQTVSCLLQGPCDAGNRALELSGVMESVIALCASEQEEEQLVAVEALIHAAGKAKRASFITANGVSLLKDLYKCSEKDSIRIRALVGLCKLGSAGGTDFSMKQFAEGSTLKLAKQCRKWLCNDQIDAGTRRWAVEGLAYLTFDADVKEEFVEDAAALKALFQLSRLEERSVLFAVASALVNCTNSYDYEEPDPKMVELAKYAKQHVPEQHPKDKPSFVRARVKKLLAAGVVSAMVCMVKTESPVLTSSCRELLSRVFLALVEEVEDRGTVVAQGGGRALIPLALEGTDVGQTKAAQALAKLTITSNPEMTFPGERIYEVVRPLVSLLHLNCSGLQNFEALMALTNLAGISERLRQKILKEKAVPMIEGYMFEEHEMIRRAATECMCNLAMSKEVQDLFEAQGNDRLKLLVLYSGEDDELLQRAAAGGLAMLTSMRPTLCSRIPQVTTHWLEILQALLLSSNQELQHRGAVVVLNMVEASREIASTLMESEMMEILSVLAKGDHSPVTRAAAACLDKAVEYGLIQPNQDGE
